# ± gives the uncertainty stated by the source.
# B1: Triacylglycerol hydrolase DDHD2, residues 389 to 447; numbered along this chain, O94830 (parent)
# chain: TLEEDLKKLQLSEFFDIFEKEKVDKEALALCTDRDLQEIGIPLGPRKKILNYFSTRKNS
# Variants of: B1
# Assay: abundance fitness (aPCA) (normalised: wild type 0, dead -1); higher = more abundant; growth selection in yeast, the domain comes from the species named
# Conditions: Homo sapiens
row,Variant,abundance fitness
1,L43H,0.519 ± 0.058
2,L43R,0.512 ± 0.053
3,L43S,0.617 ± 0.048
4,T1M,-0.475 ± 0.21
5,T1D,0.014 ± 0.3
6,T32C,-0.494 ± 0.1
7,T32K,0.083 ± 0.097
8,F53K,0.031 ± 0.079
9,F53A,-0.282 ± 0.07
10,F53E,0.221 ± 0.069
11,F53D,-0.03 ± 0.095
12,F53M,0.023 ± 0.091
13,F53Y,-0.027 ± 0.14
14,F53W,-0.38 ± 0.1
15,D16A,0.026 ± 0.049
16,D16M,-0.228 ± 0.091
17,D16H,-0.033 ± 0.11
18,D16C,-0.084 ± 0.085
19,D16I,-0.156 ± 0.15
20,D35L,-0.762 ± 0.08
21,D35T,-0.264 ± 0.087
22,D35E,0.197 ± 0.073
23,D35V,-0.818 ± 0.087
24,D35H,0.087 ± 0.13

row,Variant,abundance fitness
1,D35K,0.313 ± 0.081
2,D35C,-0.278 ± 0.12
3,D35Y,0.207 ± 0.12
4,T55E,0.214 ± 0.081
5,T55L,-0.072 ± 0.073
6,T55A,0.058 ± 0.067
7,L28N,-0.404 ± 0.11
8,L28W,-0.383 ± 0.092
9,L28K,-0.467 ± 0.1
10,L28V,0.073 ± 0.07
11,L6V,-1.12 ± 0.11
12,L6N,-0.32 ± 0.37
13,L6R,-0.833 ± 0.11
14,L6T,-0.492 ± 0.11
15,L6E,-0.765 ± 0.12
16,G44Y,-0.122 ± 0.054
17,G44N,0.041 ± 0.058
18,G44C,-0.176 ± 0.055
19,G44L,0.1 ± 0.049
20,G44R,-0.056 ± 0.055
21,G44H,0.101 ± 0.059
22,S12I,-0.012 ± 0.083
23,S12C,-0.22 ± 0.093
24,S12R,-0.274 ± 0.06

row,Variant,abundance fitness
1,N51S,0.14 ± 0.065
2,N51W,-0.384 ± 0.094
3,N51L,-0.185 ± 0.07
4,E19V,0.049 ± 0.065
5,E19A,-0.225 ± 0.069
6,E19H,-0.024 ± 0.12
7,E19M,0.016 ± 0.1
8,E19T,0.023 ± 0.084
9,L2P,-0.748 ± 0.092
10,L2D,-0.468 ± 0.13
11,P42S,-0.493 ± 0.081
12,P42Q,-0.393 ± 0.099
13,P42Y,-0.83 ± 0.19
14,P42F,-1.17 ± 0.32
15,P42L,-0.958 ± 0.084
16,P42R,-0.872 ± 0.082
17,P42E,-0.213 ± 0.072
18,P42K,-0.737 ± 0.1
19,P42H,-1.06 ± 0.33
20,A29S,0.106 ± 0.063
21,A29V,-0.401 ± 0.084
22,A29C,-0.23 ± 0.086
23,A29R,0.011 ± 0.064
24,A29T,0.032 ± 0.089

row,Variant,abundance fitness
1,A29F,-0.066 ± 0.098
2,F18V,-0.45 ± 0.083
3,F18W,-0.535 ± 0.11
4,F18M,-0.225 ± 0.15
5,F18I,-0.16 ± 0.16
6,F18Q,-0.31 ± 0.15
7,F18K,-0.081 ± 0.13
8,K57T,-0.155 ± 0.09
9,K57A,-0.102 ± 0.069
10,K57Q,-0.076 ± 0.098
11,K57S,-0.115 ± 0.072
12,K57L,-0.219 ± 0.071
13,K57C,-0.269 ± 0.093
14,V23K,0.101 ± 0.11
15,V23Q,-0.331 ± 0.1
16,V23N,-0.414 ± 0.19
17,V23H,-0.376 ± 0.15
18,V23Y,0.451 ± 0.12
19,V23M,0.773 ± 0.079
20,V23T,-0.231 ± 0.1
21,V23C,-0.47 ± 0.14
22,V23L,0.354 ± 0.067
23,V23S,-0.391 ± 0.083
24,K25M,0.086 ± 0.096

row,Variant,abundance fitness
1,K25N,-0.494 ± 0.16
2,K25L,0.03 ± 0.072
3,K25D,-0.027 ± 0.1
4,K25G,0.083 ± 0.059
5,K25H,0.159 ± 0.15
6,K25Q,-0.285 ± 0.097
7,L36G,-0.322 ± 0.066
8,L36D,-0.565 ± 0.13
9,L36S,-0.293 ± 0.07
10,L36C,-0.363 ± 0.11
11,L36V,-0.567 ± 0.073
12,K20C,-0.538 ± 0.14
13,K20S,-0.332 ± 0.088
14,K20A,0.07 ± 0.085
15,K20N,-0.142 ± 0.14
16,K20D,-0.126 ± 0.14
17,K20F,-0.524 ± 0.15
18,K20V,-0.432 ± 0.088
19,K20T,-0.104 ± 0.09
20,P45K,-0.285 ± 0.12
21,P45V,0.411 ± 0.063
22,P45G,-0.168 ± 0.074
23,P45L,-0.496 ± 0.072
24,P45W,-1.26 ± 0.23

row,Variant,abundance fitness
1,P45T,-0.031 ± 0.081
2,P45Q,0.188 ± 0.1
3,P45N,-0.274 ± 0.08
4,P45F,-0.144 ± 0.072
5,P45Y,-0.426 ± 0.084
6,L11Y,-1.15 ± 0.19
7,L11K,-1.14 ± 0.15
8,L11E,-0.856 ± 0.088
9,L11G,-1.22 ± 0.095
10,L11I,-0.257 ± 0.14
11,L11A,-0.882 ± 0.098
12,L11W,-1.12 ± 0.075
13,L11T,-0.871 ± 0.093
14,E38C,-0.129 ± 0.08
15,E38Y,-0.55 ± 0.11
16,E38F,-0.468 ± 0.093
17,E38H,-0.302 ± 0.1
18,E38Q,-0.161 ± 0.13
19,K7Q,0.083 ± 0.12
20,K7C,-0.294 ± 0.2
21,K7F,-0.038 ± 0.14
22,K7N,-0.153 ± 0.22
23,K7S,-0.08 ± 0.077
24,K7P,-0.689 ± 0.11

row,Variant,abundance fitness
1,K7V,-0.43 ± 0.087
2,K48H,-0.213 ± 0.13
3,K48S,-0.075 ± 0.069
4,K48W,-0.946 ± 0.13
5,K48T,0.374 ± 0.078
6,K48V,0.244 ± 0.061
7,K48G,-0.698 ± 0.079
8,E26L,-0.383 ± 0.071
9,E26T,-0.173 ± 0.11
10,E26G,0.27 ± 0.063
11,E26K,0.481 ± 0.088
12,E26R,0.137 ± 0.064
13,E26A,-0.052 ± 0.086
14,I49R,-0.489 ± 0.076
15,I49S,-0.046 ± 0.079
16,I49Q,-0.307 ± 0.11
17,I49F,-0.765 ± 0.16
18,I49V,-0.215 ± 0.072
19,Y52S,-0.15 ± 0.072
20,Y52H,0.231 ± 0.14
21,Y52L,-0.354 ± 0.073
22,Y52T,-0.172 ± 0.11
23,Y52W,-0.089 ± 0.075
